{"source": "paper doi:10.64898/2025.12.19.695307", "target": "R1-32 (human)", "test": "BLI", "data": [{"substance": "SARS-CoV-2 Omicron BA.2.11 RBD (from UniProt P0DTC2 332-527) (domain or fragment)", "values": [{"measurement": "Kd", "value": "> 55", "unit": "nM"}]}]}
